Columns and labels:
[1] = test system: F1*subA RNA substrate (template-directed ligation); experiment: fraction ligated after 30 min (ligated reads / total reads); higher = more ligase activity; sequences stand for … in GAGACCGCAACTGAAAAGTTGT…TTTCTGCACGTAGAAGCAAAAGGC; conditions: 42 °C, parent ribozyme: minF1
Protocol: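 Chip-synthesised pool of minF1 ligase ribozyme variants (single and double substitutions, single to quadruple deletions, bulge and P2 designed variants) was transcribed with T7 and reacted as a pool with excess substrate F1*subA for 30 min at 42 C in 50 mM EPPS pH 8.5, 25 mM MgCl2. Ligated and unligated RNAs were separated by PAGE, barcoded by RT and deep sequenced; fraction ligated = ligated reads / total reads, relative activity = FL / FL of wild-type minF1 (0.76); sequencing FL correlated with PAGE (R2 = 0.98). Sequences are the DNA template of the ribozyme.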

[2] = test system: F1*sub RNA substrate (template-directed ligation); experiment: fraction ligated after 30 min (ligated reads / total reads); higher = more ligase activity; conditions: 42 °C
Protocol: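 Chip-synthesised pool of F1* ligase ribozyme variants (all single and double substitutions, single, double and triple deletions in the catalytic core and GAA bulge, plus designed variants) was transcribed with T7 and reacted as a pool with excess substrate F1*sub for 30 min at 42 C in 50 mM EPPS pH 8.5, 25 mM MgCl2. Ligated and unligated bands were separated by PAGE, barcoded by RT and deep sequenced; fraction ligated = ligated reads / total reads per variant, relative activity = FL / FL of wild type (0.826). Sequences are the DNA template of the ribozyme.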

Sequence	fraction ligated [1]	fraction ligated [2]
ATCAGAAATGGATGGGTT [4d310]	0.0014	
ATCAGAAATGGATGGTTG [4d309]	0.000441	
GAGACCGCAACTGAAAAGTTGTTATCACTTGTCGTAAGACACTTTGGATGGGTTTGTTCTGCACGTAGAAGCAAAAGGC [s81]		0.0148
GAGACCGCAACTGAAAAGTTGTTATCACTTGTCGTAAGACACTTTGGATGGTTGGTTCTGCACGTAGAAGCAAAAGGC [3d2282]		0.0129
GAGACCGCAACTGAAAAGTTGTTATCACTTGTCGTAAGACACTTTGGTGGGTTGGTTCTGCACGTAGAAGCAAAAGGC [3d2276]		0.00831
GAGACCGCAACTGAAAAGTTGTTATCACTTGTCGTAAGACATTTGGATGGGTTGGTTCTGCACGTAGAAGCAAAAGGC [3d2230]		0.00375
GAGACCGCAACTGAAAAGTTGTTATCACTTGTCGTAAGACCTTTGGATGGGTTGGTTCTGCACGTAGAAGCAAAAGGC [3d2206]		0.0611
GAGACCGCAACTGAAAAGTTGTTATCACTTGTCGTAAGCACTTTGGATGGGTTGGTTCTGCACGTAGAAGCAAAAGGC [3d2151]		0.116
GAGACCGCAACTGAAAAGTTGTTATCACTTGTCGTAGACACTTTGGATGGGTTGGTTCTGCACGTAGAAGCAAAAGGC [3d2058]		0.0726
GAGACCGCAACTGAAAAGTTGTTATCACTTGTCTAAGACACTTTGGATGGGTTGGTTCTGCACGTAGAAGCAAAAGGC [3d1901]		0.0966
GAGACCGCAACTGAAAAGTTGTTATCACTTGTGTAAGACACTTTGGATGGGTTGGTTCTGCACGTAGAAGCAAAAGGC [3d1809]		0.0204
GAGACCGCAACTGAAAAGTTGTTATCACTTTCGTAAGACACTTTGGATGGGTTGGTTCTGCACGTAGAAGCAAAAGGC [3d1584]		0.0193
GAGACCGCAACTGAAAAGTTGTTATCATTGTCGTAAGACACTTTGGATGGGTTGGTTCTGCACGTAGAAGCAAAAGGC [3d1292]		0.00677
GAGACCGCAACTGAAAAGTTGTTATCCTTGTCGTAAGACACTTTGGATGGGTTGGTTCTGCACGTAGAAGCAAAAGGC [3d1120]		0.00301
GAGACCGCAACTGAAAAGTTGTTTCACTTGTCGTAAGACACTTTGGATGGGTTGGTTCTGCACGTAGAAGCAAAAGGC [3d507]		0.00164
TATCAGAAAGGATGGGTT [4d1070]	0.00116	
TATCAGAAAGGATGGTTG [4d1069]	0.000981	
TATCAGAAATGATGGGTT [4d1093]	0	
TATCAGAAATGATGGGTTG [3d366]	0.000941	
TATCAGAAATGATGGTTG [4d1092]	0.00043	
TATCAGAAATGGAGGGTTG [3d376]	0.00056	
TATCAGAAATGGATGGGTT [3d379]	0.00181	
TATCAGAAATGGATGGGTT [s45 (=3d379)]	0.00181	
TATCAGAAATGGATGGTTA [3d377]	0.00122	
TATCAGAAATGGATGGTTG [3d378]	0.00121	
TATCAGAAATGGTGGGTTG [3d372]	0.000922	
TATCAGAATGGATGGGTT [4d1042]	0.00126	
TATCAGAATGGATGGTTG [4d1041]	0.00128	

— the supplement of paper PMC6755084
